# Assay: soluble on expression in E. coli; label from the status in PepcDB or PDB records
row,Sequence,soluble on expression in E. coli
1,MISSWEQKNNCVMPEDVRNFYLMTNGFHMTWSVKLDDHIIPLGSMVINGISKLTQLIQSSVYSLPNAPTLADLEDDSQEGNEDHQLEKPHFDCRSAIFELDSCGGNGKVCLVYKNGKPGLAHDTEIWFLDRALYWHFLTDTFTAYYRLLITHLGLPQWQYAFTSYGISPQAKQWFSMYKPITYNTSLLTEEPDTFVNKLDPSKVFKSKNKILIPKKKGPVQPVSGQKGPGPLAPPTSKPSAGCGNPVRK,not soluble
2,GPLGSMQLKPMEINPEMLNKVLSRLGVAGQWRFVDVLGLEEESLGSVPAPACALLLLFPLTAQHENFRKKQIEELKGQEVSPKVYFMKQTIGNSCGTMGLIHAVANNQDKLGFEDGSVLKQFLSETEKMSPEDRAKCFEKNEAIQAAHDAVAQEGQCRVDDKVNFHFILFNNVDGHLYELDGRMPFPVNHGASSEDTLLKDAAKVCREFTEREQGEVRFSAVALCKAA,soluble
3,MTSEQNIQTFRDFLTQYNLVAEQCFNSCVNEFGSRTVSGKEESCANNCLDKFLKMTQRVSQRFQEHQLLNAQANGAAIKVENGGKINKIQ,not soluble
4,MEEAVSPLGLDVLEVHFARGELLVRLERKDERPITVADLEEASRHIEAALDREDPIPGSYRLLVESPGPKRPLFTRRHFERFQGLKAKVPGPEGFTGRILRVEGEEVVFQVGDEERRLRIGTFRANLAEWPEEPR,soluble
5,MEQRFPELNVDLSFEQEFQMRVMEEQVSAMSLQEARELLLQASRLLMMKDNVIRSLVKRAARS,soluble
6,MVDPVGFAEAWKAQFPDSEPPRMELRSVGDIEQELERCKASIRRLEQEVNQERFRMIYLQTLLAKEKKSYDRQRWGFRRAAQAPDGASEPRASASRPQPAPADGADPPPAEEPEARPDGEGSPGKARPGTARRPGAAASGERDDRGPPASVAALRSNFERIRKGHGQPGADAEKPFYVNVEFHHERGLVKVNDKEVSDRISSLGSQAMQMERKKSQHGAGSSVGDASRPPYRGRSSESSCGVDGDYEDAELNPRFLKDNLIDANGGSRPPWPPLEYQPYQSIYVGGMMEGEGKGPLLRSQSTSEQEKRLTWPRRSYSPRSFEDCGGGYTPDCSSNENLTSSEEDFSSGQSSRVSPSPTTYRMFRDKSRSPSQNSQQSFDSSSPPTPQCHKRHRHCPVVVSEATIVGVRKTGQIWPNDGEGAFHGDADGSFGTPPGYGCAADRAEEQRRHQDGLPYIDDSPSSSPHLSSKGRGSRDALVSGALESTKASELDLEKGLEMRKWVLSGILASEETYLSHLEALLLPMKPLKAAATTSQPVLTSQQIETIFFKVPELYEIHKEFYDGLFPRVQQWSHQQRVGDLFQKLASQLGVYRAFVDNYGVAMEMAEKCCQANAQFAEISENLRARSNKDAKDPTTKNSLETLLYKPVDRVTRSTLVLHDLLKHTPASHPDHPLLQDALRISQNFLSSINEEITPRRQSMTVKKGEYRQLLKDSFMVELVEGARKLRHVFLFTDLLLCTKLKKQSGGKTQQYDCKWYIPLTDLSFQMVDELEAVPNIPLVPDEELDALKIKISQIKSDIQREKRANKGSKATERLKKKLSEQESLLLLMSPSMAFRVHSRNGKSYTFLISSDYERAEWRENIREQQKKCFRSFSLTSVELQMLTNSCVKLQTVHSIPLTINKEDDESPGLYGFLNVIVHSATGFKQSSNLYCTLEVDSFGYFVNKAKTRVYRDTAEPNWNEEFEIELEGSQTLRILCYEKCYNKTKIPKEDGESTDRLMGKGQVQLDPQALQDRDWQRTVIAMNGIEVKLSVKFNSREFSLKRMPSRKQTGVFGVKIAVVTKRERSKVPYIVRQCVEEIERRGMEEVGIYRVSGVATDIQALKAAFDVNNKDVSVMMSEMDVNAIAGTLKLYFRELPEPLFTDEFYPNFAEGIALSDPVAKESCMLNLLLSLPEANLLTFLFLLDHLKRVAEKEAVNKMSLHNLATVFGPTLLRPSEKESKLPANPSQPITMTDSWSLEVMSQVQVLLYFLQLEAIPAPDSKRQSILFSTEV,soluble
7,MSVIKLKSKLKYCHYAYDDEGYVIHMLTSNERTFFTNAYIIETKNSIVVVDTLMVNSDAILLRQYMDNINKPLIAVIITHGHPDHYNGTEIITGFKEVPIISTKGIRDCIQDTVDSKEVKWKPYFGQDWPEHKILPNQLVIDSEVVNLDGLDYSFRDLGAAESSSDLFFTLGEKRSVIFVGDVVFNNMHGFMNDGNSAQWLKVLQKLLTEIADVKLLFTGHGDPGDTHQLVQRQIDYISHYRSNLLAIIRGNQLEHHHHHH,not soluble
8,TARKCLLEKVEVITGEEAESNVLQMQCKLFVFDKTSQSWVERGRGLLRLNDMASTDDGTLQSRLVMRTQGSLRLILNTKLWAQMQIDKASEKSIHITAMDTEDQGVKVFLISASSKDTGQLYAALHHRILALRSRVE,soluble
9,GSHMSGEDAEVRAVSEDVSNGSSGSPSPGDTLPWNLGKTQRSRRSGGGAGSNGSVLDPAERAVIRIADERDRVQKKTFTKWVNKHLIKAQRHISDLYEDLRDGHNLISLLEVLSGDSLPREKGRMRFHKLQNVQIALDYLRHRQVKLVNIRNDDIADGNPKLTLGLIWTIILHFQISDIQVSGQSEDMTAKEKLLLWSQRMVEGYQGLRCDNFTSSWRDGRLFNAIIHRHKPLLIDMNKVYRQTNLENLDQAFSVAERDLGVTRLLDPEDVDVPQPDEKSIITYVSSLYDAMPRVP,soluble
10,ISEFGSMNVILSIDQSTQSTKVFFYDEELNIVHSNNLNHEQKCLKPGWYEHDPIEIMTNLYNLMNEGIKVLKDKYTSVIIKCIGITNQRETVIIWDRITGKPLYNAIVWLDTRVEELVTEFSAKYNNNDIQKKTGTYFNTYFSAFKILWLIQNNPEIKQKIDDGTAVIGNINTWLIFNLTKGNCYTDVTNASRTLLMDINTLQWDEKMCKIFNITNMSVLPEIKSNCSNFGLVKSEHVPDYLNIPITGCIGDQQSACIGQAIFDEGEAKCTYGTGVFLLINTGEKVVYSTCGLITTICYKFNDNDKPKYALEGSIGTAGSGVSWLLKNKLIDDPSEASDIMEKCENTTGVIFVPAFSGLYAPRWRSDARASIYGMTFNTERSHIVRALLEGIAFQLNEIVDSLTSDMGIEMLHVLRCDGGMTKNKPFMQFNSDIINTKIEVSKYKEVTSLGAAVLAGLEVKIWDSLDSVKSLLRRSDAVFHSKMDDKKRKKKTSEWNKAVERTLIQL,soluble
11,MSLVEVYLNSSSMIPIDRYYEYDIYDLVIEAYKNFEGEYDVNSIDLIVVANAYSQKLNNASLIAPKIAEKIGKPNVPSIKVDNADASGGAALLTAYSLIKSNMVNSVLIVGVEKQSDYPSKYLYDAISTNLDDYMFYNGISSHSVAALLMRQYMKRYGVDRNYFANWAIKMHKNATENPFAYLRFQVDLNTVINSQIISDPVRLFDVGARADGAAILLLSNNKTESAVKINKILSAQARYDFSPSLPSVRMLRDKLELKFSERTGIDIHDSYSIMAALMLEEAGIFESGKSLHNLDSVNVNLGGGLKARGHVGGASAIYQLAEAHMQLIGSFKGKKASVDNYIVISSDDLGMVSYGINLSREGHHHHHH,not soluble
12,MSLKEIGPNSLLLEDSHSLSQLLKKNYRWYSPIFSPRNVPRFADVSSITESPETLKAIRDFLVERYRTMSPAPTHILGFDARGFLFGPMIAVELGIPFVLMRKADKNAGLLIRSEPYEKEYKEAAPEVMTIRHGSIGKNSRVVLIDDVLATGGTALSGLQLVEASGAEVVEMVSILTIPFLKAAERIHSTAGGRYKNVRFIGLLSEDVLTEANCGDLNDYTGPRVLSCSDLLVNQ,soluble
13,MNLKPHCLALALACAGLAGPLPALAATPAAAQSAPVTVLASLPVTHALAERLLRDTEVKLQRVAPANLPASRQASFFAGRGAGGLAKAAGQADAVIDLRSIWSDDPLYPLARRSNIRIVEIDAARPVDGALPGIALRPGSDLHAYPWLNPTNLGRMADVLASDLERLAPGAAATIQANLATLKKQLLEATASNETRLAKADNLSVISLSERLGYLLAGLNLDPLDVEIQADDGWTETNIQAFAEELKSEDIALVLHHRQPPKPLADAIAASGARLIVVDTEAADPVAGLESDMKAIVEGLLAGKG,not soluble
14,MSNVAENNDGVYDAPTGITAPPIDELLKHVSSKYALVIFAAKRARQINSYYQQADEGVFEFVGPLVTPEAQEKPLSIAMREIEAGLLDHEEG,not soluble
15,GSTERPVAGPYITFTDAVNETTIMLKWMYIPASNNNTPIHGFYIYYRPTDSDNDSDYKKDMVEGDKYWHSISHLQPETSYDIKMQCFNEGGESEFSNVMICETKARKSSGQ,soluble

# From the DeepSol protein solubility set
